Laboratory results as given in patent US20230265185A1 (NATIONAL RESEARCH COUNCIL OF CANADA, published 2023).

Target: T1, recombinant extracellular domain of the predominant human CD22-beta isoform (CD22-ECD) (human, UniProt P20273 20-687, CHO-expressed glycoprotein. Capture on an SA chip implies biotinylation, but the patent does not state it for SPR.)
T1 construct: Expressed in CHO-3E7 cells, IMAC and SEC purified, monomeric fraction; Results say it was immobilized onto a CM5 dextran chip; also called human CD22-ECD; hCD22 ecto-domain
T1 sequence: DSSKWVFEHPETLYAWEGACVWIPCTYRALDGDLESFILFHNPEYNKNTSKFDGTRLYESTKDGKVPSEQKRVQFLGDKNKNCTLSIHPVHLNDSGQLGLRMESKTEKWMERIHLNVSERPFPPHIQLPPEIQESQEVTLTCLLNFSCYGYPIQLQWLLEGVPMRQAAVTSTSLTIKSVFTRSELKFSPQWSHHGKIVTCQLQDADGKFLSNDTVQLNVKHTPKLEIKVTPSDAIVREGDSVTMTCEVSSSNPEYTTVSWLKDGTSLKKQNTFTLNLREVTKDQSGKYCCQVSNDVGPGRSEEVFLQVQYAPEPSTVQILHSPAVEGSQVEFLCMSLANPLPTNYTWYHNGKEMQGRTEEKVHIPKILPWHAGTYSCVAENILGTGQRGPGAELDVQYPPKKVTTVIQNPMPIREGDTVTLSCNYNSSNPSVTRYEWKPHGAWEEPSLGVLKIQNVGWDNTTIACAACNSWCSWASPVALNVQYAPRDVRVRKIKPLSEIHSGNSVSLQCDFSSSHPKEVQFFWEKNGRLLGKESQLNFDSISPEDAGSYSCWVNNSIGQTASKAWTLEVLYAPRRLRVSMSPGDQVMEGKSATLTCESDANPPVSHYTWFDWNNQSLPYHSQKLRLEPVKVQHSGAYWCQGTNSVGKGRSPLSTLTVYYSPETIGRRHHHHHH
Experiment: SPR, Biacore T200, VHH over immobilized CD22-ECD
Protocol: For surface Plasmon resonance, 21 selected VHHs were passed though size exclusion columns, superdex 75 (GE Healthcare), respectively, in 10 mM HEPES, pH 7.4, containing 150 mM NaCl, 3 mM EDTA, monomeric sdAb fractions were collected and protein concentrations were determined by measuring absorbance at 280 nm (A280). Analysis were performed with Biacore T200 instrument (GE Healthcare). All measurements were carried out at 25° C. in 10 mM HEPES, pH 7.4, containing 150 mM NaCl, 3 mM EDTA and 0.005% surfactant P20 (GE Healthcare). Approximately 1919 RUs of the recombinant monomeric CD22-ECD (obtained after SEC purification of the CD22-ECD) were captured on SA sensor chip (GE Healthcare) at a flow rate of 5 uL/min. Various concentration of the monomeric VHHs were injected over CD22-ECD surface, respectively using an SA surface as a reference at a flow rate of 40 µL/min. Surfaces were generated by washing with running buffer. Data were analysed with BIAevaluation 4.1 software.
The monomeric fraction of all 21 VHHs were used for SPR experiment where the human CD22-ECD was immobilized onto the CM5 dextran chip and various VHH concentration (0.6-400 nM) were passed over the sensor chip. […] All of the data collected fit a 1:1 binding model.

B1: hCD221ug-6 (VHH)
VHH: QVQLVESGGGVVRPGDSLRLSCTVSGFTLDYYVMGWFRQAPGKEREVVSCISSSDGVTYYADSVKGRFTISRDNAKNTVYLQMNSLKPEDTAIYYCAVDKPFYDGGYYYTCPVDFDSWGQGTQVTVSS
modifications: single biotin at the VHH C-terminal (biotinylation signal sequence)
notes: llama VHH, expressed in E. coli TG1, IMAC purified, monomeric SEC fraction; also called VHH # 5
- Kd: 2.41 nM
- koff: 0.000129 s⁻¹
- kon: 53600 M⁻¹ s⁻¹

B2: hCD22pas-10 (VHH)
VHH: QVQLVESGGGLVQPGDSLRLSCTVSGFTSDYYAMGWFRQAPGKEREAVSCISSSDGVTYYADSVRGRFTISRDNAKNTVYLEMNSLKPEDTAIYYCAVDKPFYDGGYLYTCPVDFDSWGQGTQVTVSS
modifications: single biotin at the VHH C-terminal (biotinylation signal sequence)
notes: llama VHH, expressed in E. coli TG1, IMAC purified, monomeric SEC fraction; also called VHH # 6
- Kd: 19 nM
- koff: 0.00289 s⁻¹
- kon: 152000 M⁻¹ s⁻¹

B3: hCD22100ng-2 (VHH)
VHH: QVKLEESGGGLVQPGGSLRLSCTVSGVTFDYYVMGWFRQAPGKEREVVSCMRNSDGVTYYADSVKGRFTISRDNAKNTVYLQMNSLKPDDTAIYYCAVDKPFYDGGNYYTCPVDFDSWGQGTQVTVSS
modifications: single biotin at the VHH C-terminal (biotinylation signal sequence)
notes: llama VHH, expressed in E. coli TG1, IMAC purified, monomeric SEC fraction; also called VHH # 2
- Kd: 2.78 nM
- koff: 0.00013 s⁻¹
- kon: 46800 M⁻¹ s⁻¹

B4: hCD22100ng-66 (VHH)
VHH: QVQLVESGGGLVQPGGSLRLSCTVSGFSLDYYVMGWFRQAPGKEREVVSCISSSDGATYYPDSVKGRFTISRDNAKKTVYLQMNALKPEDTAIYYCAVDKPFYDGGSYYTCPVDFGSWGQGTQVTVSS
modifications: single biotin at the VHH C-terminal (biotinylation signal sequence)
notes: llama VHH, expressed in E. coli TG1, IMAC purified, monomeric SEC fraction; also called VHH # 4
- Kd: 0.924 nM
- koff: 0.000134 s⁻¹
- kon: 145000 M⁻¹ s⁻¹

B5: hCD221ug-14 (VHH)
VHH: QVKLEESGGGLVQAGGSLRLSCAVSGRIFRSYVLGWFRQAPGKERELVARIGWSDTYYADSVKGRFTISRDNAKNTVDLQMNSLKPEDTAVYYCAANSPPYGPQRDEFDYWGQGTQVTVSS
modifications: single biotin at the VHH C-terminal (biotinylation signal sequence)
notes: llama VHH, expressed in E. coli TG1, IMAC purified, monomeric SEC fraction; also called VHH # 16; 9-hCD22 1ug-14
- Kd: 0.00684 nM
- koff: 2.1e-05 s⁻¹
- kon: 3.07e+06 M⁻¹ s⁻¹

B6: hCD22pas-33 (VHH)
VHH: QVKLEESGGGLVQPGGSLRLSCTVSGFTLDSYVMGWFRQAPGKEREAVSCISSSDGVTYYADSVKGRFTISRDNAKNTYLQMNSLKPEDTAIYYCAVDKPFYDGGYLYTCPVDFDSWGQGIQVTVSS
modifications: single biotin at the VHH C-terminal (biotinylation signal sequence)
notes: llama VHH, expressed in E. coli TG1, IMAC purified, monomeric SEC fraction; also called VHH # 7
- Kd: 2.6 nM
- koff: 0.00014 s⁻¹
- kon: 54000 M⁻¹ s⁻¹

B7: hCD221ug-77 (VHH)
VHH: QVKLEESGGGLVQPGGSLRLSCADSGSIFRIAVMNWYRQAPGKERELVAVITSGGETHYAASVKGRFTISRDNAKNTMYLQMNSLKPEDTAVYYCNAKWGQYEYWGQGTQVTVSS
modifications: single biotin at the VHH C-terminal (biotinylation signal sequence)
notes: llama VHH, expressed in E. coli TG1, IMAC purified, monomeric SEC fraction; also called VHH # 8
- Kd: 4.77 nM
- koff: 0.00262 s⁻¹
- kon: 550000 M⁻¹ s⁻¹

B8: hCD221ug-75 (VHH)
VHH: QVKLEESGGGLVQPGGSLRLSCAGSGSIFRIAVMNWYRQAPGKERELVAVITSGGDTHYAASVKGRFTISRDNAKNTMYLQINSLKPEDTAVYYCNAKYGRDEYWGQGAQVTVSS
modifications: single biotin at the VHH C-terminal (biotinylation signal sequence)
notes: llama VHH, expressed in E. coli TG1, IMAC purified, monomeric SEC fraction; also called VHH # 10
- Kd: 0.865 nM
- koff: 0.00121 s⁻¹
- kon: 1.4e+06 M⁻¹ s⁻¹

B9: hCD221ug-87 (VHH)
VHH: QVQLVESGGGLVQPGGSLRLSCADSGSIFRIAVMNWYRQAPGKERELVAVITSGGETHYAASVKGRFTISRDNAKNTMYLQMNSLKPEDTAVYYCNAKWGRDEYWGQGTQVTVSS
modifications: single biotin at the VHH C-terminal (biotinylation signal sequence)
notes: llama VHH, expressed in E. coli TG1, IMAC purified, monomeric SEC fraction; also called VHH # 9
- Kd: 0.647 nM
- koff: 0.000797 s⁻¹
- kon: 1.23e+06 M⁻¹ s⁻¹

B10: hCD221ug-93 (VHH)
VHH: QVKLEESGGGLVQAGGSLRLSCAASGSTFSSSVMNWYRQAPGKQRELVAVITSSGSTHYADSVKGRFTISRDNAKNTVNLQMNSLKPEDTAVYYCNAQYGRRSDWGQGTQVTVSS
modifications: single biotin at the VHH C-terminal (biotinylation signal sequence)
notes: llama VHH, expressed in E. coli TG1, IMAC purified, monomeric SEC fraction; also called VHH # 11
- Kd: 7.7 nM
- koff: 0.0105 s⁻¹
- kon: 1.36e+06 M⁻¹ s⁻¹

B11: hCD22pas-79 (VHH)
VHH: QVKLEESGGGLVQPGGSLRLSCTVSGRTSSVYGMAWFRQTPGKEREFVAAMSWSGGPTYFADSVKGRFGSSRDNAKNTVYLQMNGLRPEDTAVYYCAVRIRRTLLEPLTKETLYDYWGQGTQVTVSS
modifications: single biotin at the VHH C-terminal (biotinylation signal sequence)
notes: llama VHH, expressed in E. coli TG1, IMAC purified, monomeric SEC fraction; also called VHH # 18
- Kd: 7.72 nM
- koff: 0.00397 s⁻¹
- kon: 514000 M⁻¹ s⁻¹

B12: hCD22pas-16 (VHH)
VHH: QVQLVESGGGLVQAGGSLRLSCAASGSTFSLKAMAWYRQAPGKQRERVGVINSDGSYTTDAASVQGRFTISRDNAKNTVYLQMNSLKPEDTAVYYCNTMPPWPWGQGTQVTVSS
modifications: single biotin at the VHH C-terminal (biotinylation signal sequence)
notes: llama VHH, expressed in E. coli TG1, IMAC purified, monomeric SEC fraction; also called VHH # 20
- Kd: 2.75 nM
- koff: 0.001 s⁻¹
- kon: 365000 M⁻¹ s⁻¹

B13: hCD221ug-74 (VHH)
VHH: QVKLEESGGGLVQAGGSLRLSCAGSGFTFDDYAMGWFRQAPGKEREVVSCMGSSDGATYYADSVKGRFTISRDNAKNTVYLQMNSLKPEDTAIYYCAVDKPFYDGGYRYTCPVDFGSWGQGTQVTVSS
modifications: single biotin at the VHH C-terminal (biotinylation signal sequence)
notes: llama VHH, expressed in E. coli TG1, IMAC purified, monomeric SEC fraction; also called VHH # 3
- Kd: 7.08 nM
- koff: 0.000655 s⁻¹
- kon: 92500 M⁻¹ s⁻¹
